Assay [1] has as its system heptanedioyl-[acp] or heptanedioyl-[acp] methyl ester. Put plainly: Thioesterase enzyme activity assay, release of holo-ACP monitored by absorbance at 412 nm. Conditions: purified thioesterase, 37° C., 30 min, FIG. 41. It is filed as biochemical. On the procedure: The thioesterases were expressed and purified following procedures disclosed herein. The enzyme activity assay was performed in duplicate or triplicate in a buffer having heptanedioyl-[acp] or heptanedioyl-[acp] methyl ester as substrate. The enzyme activity assay reaction was initiated by adding purified thioesterase gene products to the assay buffer and incubating at 37° C. for 30 min. The release of holo-ACP was monitored by absorbance at 412 nm. The absorbance associated with the empty vector control is very low. Many of the gene products of thioesterases accepted heptanedioyl-[acp] or heptanedioyl-[acp] methyl ester as substrate as confirmed via relative spectrophotometry (see FIG. 41).

Assay [2] concerns heptanedioyl-ACP. In kind it is cell-based, Escherichia coli. To be noted: top 150 hits screened in vivo.
Assay [3] is described as follows: Carboxylate reductase activity, 7-hydroxyheptanoate to 7-hydroxyheptanal, NADPH consumption at 340 nm. In kind it is biochemical. To be noted: enhanced by gene product of sfp, 20 min, against empty vector control, FIG. 44. On the procedure: A sequence encoding a His-tag was added to the genes from Mycobacterium marinum, Mycobacterium smegmatis, Segniliparus rugosus, Mycobacterium smegmatis, Mycobacterium massiliense, and Segniliparus rotundus that encode the carboxylate reductases of SEQ ID NOs: 25 (GenBank Accession No. ACC40567.1), 27 (GenBank Accession No. ABK75684.1), 29 (GenBank Accession No. ABK71854.1), 31 (GenBank Accession No. EFV11917.1), 37 (GenBank Accession No. EIV11143.1), and 38 (GenBank Accession No. ADG98140.1) such that N-terminal HIS tagged carboxylate reductases could be produced. Each of the modified genes was cloned into a pET Duet expression vector alongside a sfp gene encoding a His-tagged phosphopantetheine transferase from Bacillus subtilis, both under control of the T7 promoter.
Each expression vector was transformed into a BL21[DE3] E. coli host and the resulting recombinant E. coli strains were cultivated at 37° C. in a 250 mL shake flask culture containing 50 mL LB media and antibiotic selection pressure, with shaking at 230 rpm. Each culture was induced overnight at 37° C. using an auto-induction media.
The pellet from each induced shake flask culture was harvested via centrifugation. Each pellet was resuspended and lysed via sonication. The cell debris was separated from the supernatant via centrifugation. The carboxylate reductases and phosphopantetheine transferase were purified from the supernatant using Ni-affinity chromatography, diluted 10-fold into 50 mM HEPES buffer (pH=7.5) and concentrated via ultrafiltration.
Enzyme activity (i.e., 7-hydroxyheptanoate to 7-hydroxyheptanal) assays were performed in triplicate in a buffer composed of a final concentration of 50 mM HEPES buffer (pH=7.5), 2 mM […], 10 mM MgCl2, 1 mM ATP, and 1 mM NADPH. Each enzyme activity assay reaction was initiated by adding purified carboxylate reductase and phosphopantetheine transferase or the empty vector control to the assay buffer containing the 7-hydroxyheptanoate and then incubated at room temperature for 20 min. The consumption of NADPH was monitored by absorbance at 340 nm.

The nature of assay [4]: Carboxylate reductase activity, N7-acetyl-7-aminoheptanoate to N7-acetyl-7-aminoheptanal, NADPH consumption at 340 nm. To be noted: enhanced by gene product of sfp, 2 mM substrate, 20 min, against empty vector control, FIG. 45. It is filed as biochemical. The procedure: The activity of each of the N-terminal His-tagged carboxylate reductases of SEQ ID NOs: 29 (GenBank Accession No. ABK71854.1), 37 (Genbank Accession No. EIV11143.1), and 38 (GenBank Accession No. ADG98140.1) (see Examples 4) for converting N7-acetyl-7-aminoheptanoate to N7-acetyl-7-aminoheptanal was assayed in triplicate in a buffer composed of a final concentration of 50 mM HEPES buffer (pH=7.5), 2 mM N7-acetyl-7-aminoheptanoate, 10 mM MgCl2, 1 mM ATP, and 1 mM NADPH. The assays were initiated by adding purified carboxylate reductase and phosphopantetheine transferase or the empty vector control to the assay buffer containing the N7-acetyl-7-aminoheptanoate then incubated at room temperature for 20 min. The consumption of NADPH was monitored by absorbance at 340 nm.

B1: 14 TE: Paenibacillus lactis thioesterase (protein)
chain: MVEKWTETYTIQSVDADFRGDCRWSSLLSIMQRAADKHIEALGIDREEMIERGLGWMLITLEADMTSIPRDMETIHVETWSRGSKGVLWHRDYRIMNDHGEQVGGARSVWTLVDIQKRKILRPSMFPYDVPIGQDSVGELPSKAVLPEGIELGEAYTTVVRYSGIDVNGHLNNARYADLCMDVLDEPELQGDKVTGFKITYNHEARLKDTIIVRRSGEIEGRIFVQGVSPEGTNFFEAALVKRKQ
modifications: Paenibacillus lactis 154
notes: Paenibacillus lactis thioesterase
Consider B1, for which the “synthesis of holo-ACP using heptanedioyl-[acp] methyl ester as substrate, compared to using heptanedioyl-[acp] as substrate” value in assay [1] was “more efficiently”.

B2: 11TE: Bacillus coagulans thioesterase (protein)
chain: MANGSSLYKGQYHIELRDVDFTKKLKLSALFSLFQDIASLAAEDLGYGIETLEKKYKVAWILTRIRVDILRHPTWDENITIETWPLQPSKIDFDRDFLVKDHTGAVIIKAASKWVVMGLNDRKIKRTESINIHYPENRTERAIEGKFGKFKDFGGLEPAYQKVIGYSDIDFNGHLNNSKYVDYIMDCFLPDFHKRHPIHTIEINFNQEALPGDSITLYKDISKMDEHELYVEGVNQTDHHTIFKSHITIH
modifications: Bacillus coagulans (strain 2-6)
notes: Bacillus coagulans thioesterase
Take B2: the “synthesis of holo-ACP using heptanedioyl-[acp] methyl ester as substrate, compared to using heptanedioyl-[acp] as substrate” value in assay [1] is “more efficiently”. The “activity toward heptanedioyl-ACP in vivo” value in assay [2] was “displayed considerable activity toward heptanedioyl-ACP”.

B3: 6TE: Lactobacillus delbrueckii thioesterase (protein, listed as Lactobacillus delbrueckii)
chain: MRYYKDYQLKYVDCGESGQLKLPRMIDLMMESSEGQLAPTLGGASAMKERGRGWVVTQYEFEFTSLPRAGQKVRVWTEAVGYNRFLSYRDFGIEDEAGKDLVIAHSQWVLFDLKSRKLLPSDDKIAEELGAPLLAKIPRFKKLRPKDDYKDEKVYRAYYYDLDSNHHVNNAHYLDWIVDSLPRDFVNSHEPKDLAIKFDKEIKYGDEVVCQVMQETEDSAVKTCHAITRQGELMALCEVNWQKMCFNRD
Take B3: in assay [1], the “synthesis of holo-ACP using heptanedioyl-[acp] methyl ester as substrate, compared to using heptanedioyl-[acp] as substrate” value is listed as “more efficiently”.

B4: SEQ ID NO: 29: Mycobacterium smegmatis carboxylate reductase (protein)
chain: MTSDVHDATDGVTETALDDEQSTRRIAELYATDPEFAAAAPLPAVVDAAHKPGLRLAEILQTLFTGYGDRPALGYRARELATDEGGRTVTRLLPRFDTLTYAQVWSRVQAVAAALRHNFAQPIYPGDAVATIGFASPDYLTLDLVCAYLGLVSVPLQHNAPVSRLAPILAEVEPRILTVSAEYLDLAVESVRDVNSVSQLVVFDHHPEVDDHRDALARAREQLAGKGIAVTTLDAIADEGAGLPAEPIYTADHDQRLAMILYTSGSTGAPKGAMYTEAMVARLWTMSFITGDPTPVINVNFMPLNHLGGRIPISTAVQNGGTSYFVPESDMSTLFEDLALVRPTELGLVPRVADMLYQHHLATVDRLVTQGADELTAEKQAGAELREQVLGGRVITGFVSTAPLAAEMRAFLDITLGAHIVDGYGLTETGAVTRDGVIVRPPVIDYKLIDVPELGYFSTDKPYPRGELLVRSQTLTPGYYKRPEVTASVFDRDGYYHTGDVMAETAPDHLVYVDRRNNVLKLAQGEFVAVANLEAVFSGAALVRQIFVYGNSERSFLLAVVVPTPEALEQYDPAALKAALADSLQRTARDAELQSYEVPADFIVETEPFSAANGLLSGVGKLLRPNLKDRYGQRLEQMYADIAATQANQLRELRRAAATQPVIDTLTQAAATILGTGSEVASDAHFTDLGGDSLSALTLSNLLSDFFGFEVPVGTIVNPATNLAQLAQHIEAQRTAGDRRPSFTTVHGADATEIRASELTLDKFIDAETLRAAPGLPKVTTEPRTVLLSGANGWLGRFLTLQWLERLAPVGGTLITIVRGRDDAAARARLTQAYDTDPELSRRFAELADRHLRVVAGDIGDPNLGLTPEIWHRLAAEVDLVVHPAALVNHVLPYRQLFGPNVVGTAEVIKLALTERIKPVTYLSTVSVAMGIPDFEEDGDIRTVSPVRPLDGGYANGYGNSKWAGEVLLREAHDLCGLPVATFRSDMILAHPRYRGQVNVPDMFTRLLLSLLITGVAPRSFYIGDGERPRAHYPGLTVDFVAEAVTTLGAQQREGYVSYDVMNPHDDGISLDVFVDWLIRAGHPIDRVDDYDDWVRRFETALTALPEKRRAQTVLPLLHAFRAPQAPLRGAPEPTEVFHAAVRTAKVGPGDIPHLDEALIDKYIRDLREFGLI
modifications: Mycobacterium smegmatis (strain ATCC 700084 / mc(2)155)
notes: Mycobacterium smegmatis carboxylate reductase
Turning to B4, in assay [3], the “acceptance of 7-hydroxyheptanoate as substrate, forming 7-hydroxyheptanal” value was “accepted 7-hydroxyheptanoate as substrate”. For the same molecule, in assay [4], the “acceptance of N7-acetyl-7-aminoheptanoate as substrate, forming N7-acetyl-7-aminoheptanal” value is reported as “accepted N7-acetyl-7-aminoheptanoate as substrate”.

B5: 5TE: Lactobacillus brevis thioesterase (protein)
chain: MAANEFSETHRVVYYEADDTGQLTLAMLINLFVLVSEDQNDALGLSTAFVQSHGVGWVVTQYHLHIDELPRTGAQVTIKTRATAYNRYFAYREYWLLDDAGQVLAYGEGIWVTMSYATRKITTIPAEVMAPYHSEEQTRLPRLPRPDHFDEAVNQTLKPYTVRYFDIDGNGHVNNAHYFDWMLDVLPATFLRAHHPTDVKIRFENEVQYGHQVTSELSQAAALTTQHMIKVGDLTAVKATIQWDNR
modifications: Lactobacillus brevis (strain ATCC 367 / JCM 1170)
notes: Lactobacillus brevis thioesterase
On to B5, for which the “synthesis of holo-ACP using heptanedioyl-[acp] methyl ester as substrate, compared to using heptanedioyl-[acp] as substrate” value in assay [1] was “more efficiently”.

B6: SEQ ID NO: 37: Mycobacterium massiliense carboxylate reductase (protein)
chain: MTNETNPQQEQLSRRIESLRESDPQFRAAQPDPAVAEQVLRPGLHLSEAIAALMTGYAERPALGERARELVIDQDGRTTLRLLPRFDTTTYGELWSRTTSVAAAWHHDATHPVKAGDLVATLGFTSIDYTVLDLAIMILGGVAVPLQTSAPASQWTTILAEAEPNTLAVSIELIGAAMESVRATPSIKQVVVFDYTPEVDDQREAFEAASTQLAGTGIALETLDAVIARGAALPAAPLYAPSAGDDPLALLIYTSGSTGAPKGAMHSENIVRRWWIREDVMAGTENLPMIGLNFMPMSHIMGRGTLTSTLSTGGTGYFAASSDMSTLFEDMELIRPTALALVPRVCDMVFQRFQTEVDRRLASGDTASAEAVAAEVKADIRDNLFGGRVSAVMVGSAPLSEELGEFIESCFELNLTDGYGSTEAGMVFRDGIVQRPPVIDYKLVDVPELGYFSTDKPHPRGELLLKTDGMFLGYYKRPEVTASVFDADGFYMTGDIVAELAHDNIEIIDRRNNVLKLSQGEFVAVATLEAEYANSPVVHQIYVYGSSERSYLLAVVVPTPEAVAAAKGDAAALKTTIADSLQDIAKEIQLQSYEVPRDFIIEPQPFTQGNGLLTGIAKLARPNLKAHYGPRLEQMYAEIAEQQAAELRALHGVDPDKPALETVLKAAQALLGVSSAELAADAHFTDLGGDSLSALSFSDLLRDIFAVEVPVGVIVSAANDLGGVAKFVDEQRHSGGTRPTAETVHGAGHTEIRAADLTLDKFIDEATLHAAPSLPKAAGIPHTVLLTGSNGYLGHYLALEWLERLDKTDGKLIVIVRGKNAEAAYGRLEEAFDTGDTELLAHFRSLADKHLEVLAGDIGDPNLGLDADTWQRLADTVDVIVHPAALVNHVLPYNQLFGPNVVGTAEIIKLAITTKIKPVTYLSTVAVAAYVDPTTFDEESDIRLISAVRPIDDGYANGYGNAKWAGEVLLREAHDLCGLPVAVFRSDMILAHSRYTGQLNVPDQFTRLILSLIATGIAPGSFYQAQTTGERPLAHYDGLPGDFTAEAITTLGTQVPEGSEGFVTYDCVNPHADGISLDNFVDWLIEAGYPIARIDNYTEWFTRFDTAIRGLSEKQKQHSLLPLLHAFEQPSAAENHGVVPAKRFQHAVQAAGIGPVGQDGTTDIPHLSRRLIVKYAKDLEQLGLL
modifications: Mycobacterium abscessus subsp. bolletii 2B-0307
notes: Mycobacterium massiliense carboxylate reductase
On to B6, for which the “acceptance of 7-hydroxyheptanoate as substrate, forming 7-hydroxyheptanal” value in assay [3] is given as “accepted 7-hydroxyheptanoate as substrate”. The “acceptance of N7-acetyl-7-aminoheptanoate as substrate, forming N7-acetyl-7-aminoheptanal” value in assay [4] is recorded as “accepted N7-acetyl-7-aminoheptanoate as substrate”.

Source of the values: patent US10801046B2, “Methods and materials for biosynthesizing multifunctional, multivariate molecules via carbon chain modification” (INVISTA NORTH AMERICA S.A.R.L., priority 2016, dated 2020).
